Experimental data published in US20240209456, “METHODS AND COMPOSITIONS RELATED TO CELL-CYCLE RNA's” (BETH ISRAEL DEACONESS MEDICAL CENTER, published 2024).

T1: acH2A.Z N-terminal peptide (K7 acetylated)
T1 chain: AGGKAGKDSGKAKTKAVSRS

T2: H2A.Z N-terminal peptide
T2 chain: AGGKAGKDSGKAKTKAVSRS


How the values were obtained:
[1] = biological target: T3, Histone H2A.Z, full length (UniProt P0C0S5 P0C0S5:2-128); test: EMSA; no detectable RNP; details: tags: Abcam; label: 5'-32P
Method: (§1) Indeed, mutation of RM9A abolishing the predicted stem-loop structure, did change the strength and the mobility of the RNA-TIP60 complexes (Mut RM9A; FIG. 3E, lane 5).
(§2) RNA oligonucleotides (15 pmol) were end-labeled with [γ-³²P] ATP (Perkin Elmer) and T4 polynucleotide kinase (New England Biolabs). Reactions were incubated at 37° C. for 1 h and then passed through G-25 spin columns (GE Healthcare) according to the manufacturer's instructions to remove unincorporated radioactivity. Labeled samples were gel-purified on 10% polyacrylamide gels. Binding reactions were carried out in 10 μL volumes in the following buffer: 5 mM Tris pH 7.4, 5 mM MgCl₂, 1 mM DTT, 3% v/v glycerol, 100 mM NaCl. 5 μg of full length purified H2A.Z (Abcam) and TIP60 (SignalChem) proteins were incubated with 1.1 nM of ³²P-labeled ss RNAs. All reactions were assembled on ice and then incubated at room temperature for 30 min. Samples were loaded onto 6% native polyacrylamide gels (0.5×TBE) at 4° C. for 3 h at 140 V. Various concentrations (1 μM-10 mM) of H2A.Z and K7 acetylated H2A.Z peptides (AnaSpec) were incubated with a fixed amount of probe in 50 mM Tris-HCl pH 7.5, 100 mM NaCl, 0.4 mM EDTA, and 40 U/ml RNasin, 1 mM DTT, 50% glycerol in a final volume of 10 μL. Thereafter, 1 μl glutaraldehyde (0.2% final concentration) was added into the mixture and incubated at room temperature for 15 minutes. Samples were loaded onto 10% native polyacrylamide gels (0.5×TBE) at 4° C. for 3 h at 170 V. All gels were dried upon fixation with Methanol and Acetic Acid and exposed to X-ray film.

[2] = biological target: T4, TIP60 (KAT5), full length (UniProt Q92993 Q92993:1-513); test: EMSA; no detectable RNP; details: tags: SignalChem; label: 5'-32P
Method: as §1, §2

[3] = biological target: T3, Histone H2A.Z, full length; test: EMSA; 5 mM Tris pH 7.4, 5 mM MgCl2, 100 mM NaCl, RT; details: tags: Abcam; label: 5'-32P; predicted stem-loop
Method: as §1
as §2, with “Samples were loaded onto 10% native polyacrylamide gels (0.5×TBE) at 4° C. for 3 h at 170 V. All gels were dried upon fixation with Methanol and Acetic Acid and exposed to X-ray film.” left out

[4] = biological target: T4, TIP60 (KAT5), full length; test: as above; details: tags: SignalChem; label: 5'-32P; predicted stem-loop
Method: as §1
as §2, with “Samples were loaded onto 10% native polyacrylamide gels (0.5×TBE) at 4° C. for 3 h at 170 V. All gels were dried upon fixation with Methanol and Acetic Acid and exposed to X-ray film.” left out

[5] = biological target: T1, acH2A.Z N-terminal peptide (K7 …); test: EMSA; K7 acetylation did not abrogate binding; glutaraldehyde crosslink; details: protein: synthetic, tags: synthetic peptide, AnaSpec, label: 5'-32P, predicted stem-loop
Method: as §1
as §2, with “Samples were loaded onto 10% native polyacrylamide gels (0.5×TBE) at 4° C. for 3 h at 170 V. All gels were dried upon fixation with Methanol and Acetic Acid and exposed to X-ray film.” left out

H2A.Z N-terminal peptide = biological target: T2, H2A.Z N-terminal peptide; test: EMSA; peptide 1 uM-10 mM, glutaraldehyde crosslink; details: protein: synthetic; tags: synthetic peptide, AnaSpec; label: 5'-32P; predicted stem-loop
Method: as §1
as §2, with “Samples were loaded onto 10% native polyacrylamide gels (0.5×TBE) at 4° C. for 3 h at 170 V. All gels were dried upon fixation with Methanol and Acetic Acid and exposed to X-ray film.” left out

T4 sequence (Q92993 whole entry, one chain of several): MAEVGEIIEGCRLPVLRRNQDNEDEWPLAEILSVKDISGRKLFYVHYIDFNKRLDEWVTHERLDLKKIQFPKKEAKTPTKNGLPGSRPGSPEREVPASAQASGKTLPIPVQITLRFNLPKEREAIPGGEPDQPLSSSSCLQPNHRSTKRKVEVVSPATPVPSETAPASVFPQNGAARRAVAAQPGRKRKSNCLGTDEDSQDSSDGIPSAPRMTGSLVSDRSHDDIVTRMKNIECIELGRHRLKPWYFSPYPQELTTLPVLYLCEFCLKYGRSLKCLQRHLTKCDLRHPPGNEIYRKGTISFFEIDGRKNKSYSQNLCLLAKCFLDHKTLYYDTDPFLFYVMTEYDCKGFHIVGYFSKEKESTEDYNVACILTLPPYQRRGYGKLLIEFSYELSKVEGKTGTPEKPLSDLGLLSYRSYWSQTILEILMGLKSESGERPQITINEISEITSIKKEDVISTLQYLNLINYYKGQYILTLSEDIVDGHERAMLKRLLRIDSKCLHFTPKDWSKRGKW

Row | Binder | binding result [1] | binding result [2] | binding result [3] | binding result [4] | binding result [5] | binding result (H2A.Z N-terminal peptide)
1 | GCCCUUUCCCCAGCCUUAGCGA (ssRNA) [UR3] | no binding | no binding | – | – | – | –
2 | GGCGUGGCGGUGGGCGCGCAGU (ssRNA) [RM9A] | – | – | binds | binds | binds | binds
3 | GCGCCCUGCAGCCUGGUACGCG (ssRNA) [UR1] | no binding | no binding | – | – | – | –
4 | CUUUCCUCCACUCUCCCUGGGA (ssRNA) [UR2] | no binding | no binding | – | – | – | –
